According to PMC4786110:
pKd: −log10 of the molar value.

Target: aMh-FcG2a, nanobody aMh fused with the Fc domain of mouse IgG2a (Camelus bactrianus | camel | mouse)
Experiment: SPR; Biacore 3000; aMh-Fc captured by anti-mouse IgG immobilised on a CM5 chip; antigen flowed at 5.95-595 nM; 25°C, HBS-EP pH 7.4, 30 μl/min; 1:1 fitting

Chain of aMh-FcG2a, nanobody aMh fused with the Fc domain of mouse IgG2a (Camelus bactrianus | camel | mouse) (heavy, as listed by the source): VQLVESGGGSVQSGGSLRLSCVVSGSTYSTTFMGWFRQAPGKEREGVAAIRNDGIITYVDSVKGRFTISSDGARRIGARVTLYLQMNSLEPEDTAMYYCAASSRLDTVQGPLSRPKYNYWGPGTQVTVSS

pKd: 8.23
koff: 0.000106 s⁻¹
kon: 17800 M⁻¹ s⁻¹
Substance: ABC transporter substrate binding protein (MH3620) of Mycoplasma hominis (natural protein)
